One data set concerns the target Tn5 transposase (UniProt Q46731 Q46731:1-476). Kind of data set: in situ transposition, 5 mM MgCl2, TAPS-DMF pH 8.5, 37 C; library band 200-400 bp. Particulars: chain copies: 2 (stated, dimer). As for the experimental part:
PBS was removed, 100 μL of a Tn5 solution (150 ng/well in 1×Tn5 dialysis buffer) was added thereto, and the mixture was allowed to stand at room temperature for 1 hour. The composition of the 1×Tn5 dialysis buffer was formed of 50 mM HEPES-KOH (pH 7.2), 0.1 M NaCl, 0.1 mM EDTA, 1 mM DTT, 0.1% Triton X-100, and 10% glycerol. As a result, the transposase was bound to the transposase binding sequence of the double-stranded nucleic acid fragment of each ChIL probe.
Subsequently, the 1×Tn5 dialysis buffer was removed, […] of a 1×TAPS-DMF buffer (10 mM TAPS-NaOH (pH 8.5), 5 mM MgCl₂, 10% N,N-dimethylformamide) was added thereto, and the mixture was allowed to stand at 37° C. for 1 hour. With this, the transposase bound to the double-stranded nucleic acid fragment of the ChIL probe was activated, and the double-stranded nucleic acid fragment of the ChIL probe was inserted in the vicinity of the binding region of the lysine 27 acetylation modified histone H3 on the genomic DNA.

The next data set concerns the target T7 RNA polymerase (UniProt P00573 P00573:1-883). In words: in situ transcription after Tn5 insertion in mouse liver section, library band 200-400 bp; 37 C overnight; no UV needed.

This note sets out measurements from patent US20240068024, “NUCLEIC ACID FRAGMENT AND USE THEREOF” (KYUSHU UNIVERSITY, NATIONAL UNIVERSITY CORPORATION, published 2024).

Chain of Tn5 transposase (Q46731 whole entry, the tested form may be a part, one chain of several): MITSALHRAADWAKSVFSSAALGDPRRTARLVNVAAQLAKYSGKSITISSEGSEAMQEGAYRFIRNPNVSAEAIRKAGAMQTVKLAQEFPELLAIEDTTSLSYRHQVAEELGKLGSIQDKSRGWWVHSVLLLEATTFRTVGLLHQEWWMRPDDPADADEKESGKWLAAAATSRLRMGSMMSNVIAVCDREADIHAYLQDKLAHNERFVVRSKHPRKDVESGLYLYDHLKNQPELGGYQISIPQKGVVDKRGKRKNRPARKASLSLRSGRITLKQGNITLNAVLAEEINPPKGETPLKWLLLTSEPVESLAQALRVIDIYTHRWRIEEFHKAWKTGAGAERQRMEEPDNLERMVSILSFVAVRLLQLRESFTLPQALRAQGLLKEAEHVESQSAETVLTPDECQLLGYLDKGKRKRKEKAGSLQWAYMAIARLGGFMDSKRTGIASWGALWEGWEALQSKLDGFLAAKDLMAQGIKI
Chain of T7 RNA polymerase (P00573 whole entry, one chain of several): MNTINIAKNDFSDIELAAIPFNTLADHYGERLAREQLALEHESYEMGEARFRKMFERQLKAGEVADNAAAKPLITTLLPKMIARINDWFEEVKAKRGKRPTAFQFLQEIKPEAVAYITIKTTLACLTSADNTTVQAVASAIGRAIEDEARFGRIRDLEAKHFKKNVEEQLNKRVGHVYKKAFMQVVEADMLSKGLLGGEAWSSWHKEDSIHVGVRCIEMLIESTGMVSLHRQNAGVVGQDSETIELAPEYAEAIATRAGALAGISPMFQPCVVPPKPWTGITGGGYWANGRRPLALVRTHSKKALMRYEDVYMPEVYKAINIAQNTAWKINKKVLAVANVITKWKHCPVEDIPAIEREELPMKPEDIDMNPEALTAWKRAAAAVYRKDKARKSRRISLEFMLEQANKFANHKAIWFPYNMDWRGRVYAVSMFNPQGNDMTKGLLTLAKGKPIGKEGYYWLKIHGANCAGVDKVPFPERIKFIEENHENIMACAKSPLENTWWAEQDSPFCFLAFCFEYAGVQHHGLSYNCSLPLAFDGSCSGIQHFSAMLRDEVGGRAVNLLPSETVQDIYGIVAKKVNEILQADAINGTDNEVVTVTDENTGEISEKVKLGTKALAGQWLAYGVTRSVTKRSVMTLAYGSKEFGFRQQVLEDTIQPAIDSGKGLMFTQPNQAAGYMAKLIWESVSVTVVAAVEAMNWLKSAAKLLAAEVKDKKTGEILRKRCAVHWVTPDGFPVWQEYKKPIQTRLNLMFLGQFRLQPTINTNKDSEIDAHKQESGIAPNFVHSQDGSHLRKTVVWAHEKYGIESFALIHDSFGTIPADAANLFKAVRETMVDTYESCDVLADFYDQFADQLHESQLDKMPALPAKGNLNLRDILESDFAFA

B1: control ChIL probe (original) (dsDNA)
DNA 1: CCCATGCATTAATACGACTCACTATAGGGTAGATCGCTCGTCGGCAGCGTCAGATGTGTATAAGAGACAG
DNA 2: CTGTCTCTTATACACATCTGACGCTGCCGACGAGCGATCTACCCTATAGTGAGTCGTATTAATGCATGGG
modifications: 5'-azide on SEQ 1 (click-linked to DBCO-PEG5 anti-mouse IgG); 5'-phosphate on SEQ 2
Turning to B1, the binding result in the data set with Tn5 transposase and in the data set with T7 RNA polymerase was “binds” each time.
